Assay results: patent publication US20140087995A1 (published 2014)
Numbered stars: 1 amine (or outer) side, 2 acyl side, 3 side chain; on linkers, the order of the positions; unused ones are H or OH. Bridge positions count the residues as written; N and C are the ends. Side chains are listed from the residue outwards. Ends that are not written are not given here. * marks the point of attachment. C20 diacid = O=C(O)CCCCCCCCCCCCCCCCCCC(=O)*; γGlu = O=C(O)[C@H](CCC(=O)[*:2])N[*:1]

T1: human amylin receptor (human, UniProt P30988 25-474; O60896 24-148, limits assumed)
T1 construct: whole, on cells; Assay used cell membranes of the Amylin 3(a)/CRE-luc BHK cells; the complex is called the human amylin receptor; also called hAmylin-R; hAmylinR
T1 sequence (looked up) 1: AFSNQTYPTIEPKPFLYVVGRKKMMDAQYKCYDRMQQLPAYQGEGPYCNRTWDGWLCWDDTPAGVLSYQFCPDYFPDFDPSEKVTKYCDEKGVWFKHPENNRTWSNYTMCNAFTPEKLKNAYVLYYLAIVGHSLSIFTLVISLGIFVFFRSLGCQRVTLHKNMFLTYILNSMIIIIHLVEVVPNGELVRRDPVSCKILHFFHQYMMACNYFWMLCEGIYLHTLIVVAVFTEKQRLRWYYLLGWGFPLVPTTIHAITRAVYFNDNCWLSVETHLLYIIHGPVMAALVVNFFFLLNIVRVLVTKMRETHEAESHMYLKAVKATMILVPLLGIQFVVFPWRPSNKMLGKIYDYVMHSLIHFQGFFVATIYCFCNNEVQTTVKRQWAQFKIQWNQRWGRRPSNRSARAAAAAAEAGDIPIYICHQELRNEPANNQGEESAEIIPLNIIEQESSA
T1 sequence (looked up) 2: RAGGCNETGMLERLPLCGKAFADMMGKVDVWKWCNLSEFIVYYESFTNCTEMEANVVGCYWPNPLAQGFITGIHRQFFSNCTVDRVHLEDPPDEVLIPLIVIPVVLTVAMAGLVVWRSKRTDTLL

T2: human calcitonin receptor (human, UniProt P30988 25-474)
T2 construct: whole, on cells; Assay used cell membranes of the transfected BHK cells; also called hCTR; hCT
T2 sequence (looked up): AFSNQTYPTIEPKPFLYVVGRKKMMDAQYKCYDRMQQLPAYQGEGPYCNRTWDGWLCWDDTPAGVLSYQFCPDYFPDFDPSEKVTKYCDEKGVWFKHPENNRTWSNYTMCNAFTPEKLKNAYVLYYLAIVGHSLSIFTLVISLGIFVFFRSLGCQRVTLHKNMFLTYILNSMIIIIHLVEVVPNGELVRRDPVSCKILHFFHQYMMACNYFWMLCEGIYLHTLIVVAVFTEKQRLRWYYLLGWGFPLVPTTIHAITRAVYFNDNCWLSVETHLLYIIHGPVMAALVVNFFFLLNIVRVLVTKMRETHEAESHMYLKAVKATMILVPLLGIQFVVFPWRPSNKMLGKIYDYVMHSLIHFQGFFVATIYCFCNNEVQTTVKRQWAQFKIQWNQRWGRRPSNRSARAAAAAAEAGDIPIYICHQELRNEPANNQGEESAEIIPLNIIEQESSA

B1: N^α1 N^α1-[(4S)-4-carboxy-4-[[(4S)-4-carboxy-4-(19-carboxynonadecanoylamino)butanoyl]amino]butanoyl]-[Glu14,Arg17,Pro21,Pro27]-h-amylin (peptide)
peptide: {C20 diacid-γGlu-γGlu}-KCNTATCATQRLAEFLRHSSPNFGAIPSSTNVGSNTY-NH2
modifications: disulfide 2-7
SMILES: CC[C@H](C)[C@H](NC(=O)[C@H](C)NC(=O)CNC(=O)[C@H](Cc1ccccc1)NC(=O)[C@H](CC(N)=O)NC(=O)[C@@H]1CCCN1C(=O)[C@H](CO)NC(=O)[C@H](CO)NC(=O)[C@H](Cc1c[nH]cn1)NC(=O)[C@H](CCCNC(=N)N)NC(=O)[C@H](CC(C)C)NC(=O)[C@H](Cc1ccccc1)NC(=O)[C@H](CCC(=O)O)NC(=O)[C@H](C)NC(=O)[C@H](CC(C)C)NC(=O)[C@H](CCCNC(=N)N)NC(=O)[C@H](CCC(N)=O)NC(=O)[C@@H](NC(=O)[C@H](C)NC(=O)[C@@H]1CSSC[C@H](NC(=O)[C@H](CCCCN)NC(=O)CC[C@H](NC(=O)CC[C@H](NC(=O)CCCCCCCCCCCCCCCCCCC(=O)O)C(=O)O)C(=O)O)C(=O)N[C@@H](CC(N)=O)C(=O)N[C@@H]([C@@H](C)O)C(=O)N[C@@H](C)C(=O)N[C@@H]([C@@H](C)O)C(=O)N1)[C@@H](C)O)C(=O)N1CCC[C@H]1C(=O)N[C@@H](CO)C(=O)N[C@@H](CO)C(=O)N[C@H](C(=O)N[C@@H](CC(N)=O)C(=O)N[C@H](C(=O)NCC(=O)N[C@@H](CO)C(=O)N[C@@H](CC(N)=O)C(=O)N[C@H](C(=O)N[C@@H](Cc1ccc(O)cc1)C(N)=O)[C@@H](C)O)C(C)C)[C@@H](C)O
notes: Synthetic analogue; also called compound 15
B2: N^α1-[(4S)-4-carboxy-4-(19-carboxynonadecanoylamino)butanoyl]-[Arg17,Pro21,Pro27,Lys35]-h-amylin (peptide)
peptide: KCNTATCATQRLANFLRHSSPNFGAIPSSTNVGSKTY
modifications: C20 diacid-gGlu on the alpha amino group of the N-terminal residue (Lys1); disulfide Cys2-Cys7; C-terminal amide
notes: Synthetic analogue; also called compound 34
B3: N^ε1-[(4S)-4-carboxy-4-[[(4S)-4-carboxy-4-(19-carboxynonadecanoylamino)butanoyl]amino]butanoyl]-[Asp14,Arg17,Pro21,Pro27,Asp35]-h-amylin (peptide)
peptide: K([γGlu-γGlu-C20 diacid])CNTATCATQRLADFLRHSSPNFGAIPSSTNVGSDTY-NH2
modifications: disulfide 2-7; N-terminus assumed
SMILES: CC[C@H](C)[C@H](NC(=O)[C@H](C)NC(=O)CNC(=O)[C@H](Cc1ccccc1)NC(=O)[C@H](CC(N)=O)NC(=O)[C@@H]1CCCN1C(=O)[C@H](CO)NC(=O)[C@H](CO)NC(=O)[C@H](Cc1c[nH]cn1)NC(=O)[C@H](CCCNC(=N)N)NC(=O)[C@H](CC(C)C)NC(=O)[C@H](Cc1ccccc1)NC(=O)[C@H](CC(=O)O)NC(=O)[C@H](C)NC(=O)[C@H](CC(C)C)NC(=O)[C@H](CCCNC(=N)N)NC(=O)[C@H](CCC(N)=O)NC(=O)[C@@H](NC(=O)[C@H](C)NC(=O)[C@@H]1CSSC[C@H](NC(=O)[C@@H](N)CCCCNC(=O)CC[C@H](NC(=O)CC[C@H](NC(=O)CCCCCCCCCCCCCCCCCCC(=O)O)C(=O)O)C(=O)O)C(=O)N[C@@H](CC(N)=O)C(=O)N[C@@H]([C@@H](C)O)C(=O)N[C@@H](C)C(=O)N[C@@H]([C@@H](C)O)C(=O)N1)[C@@H](C)O)C(=O)N1CCC[C@H]1C(=O)N[C@@H](CO)C(=O)N[C@@H](CO)C(=O)N[C@H](C(=O)N[C@@H](CC(N)=O)C(=O)N[C@H](C(=O)NCC(=O)N[C@@H](CO)C(=O)N[C@@H](CC(=O)O)C(=O)N[C@H](C(=O)N[C@@H](Cc1ccc(O)cc1)C(N)=O)[C@@H](C)O)C(C)C)[C@@H](C)O
notes: Synthetic analogue; also called compound 2

Legend:
[1] = molecular target: T1, human amylin receptor; assay: SPA radioligand competition (125I-rat amylin), membranes of BHK cells with human calcitonin receptor + RAMP-3
Protocol: The binding assay was performed using scintillation proximity assay (SPA) beads (RPNQ0001) from PerkinElmer and cell membranes from the Amylin 3(a)/CRE-luc cells (as described in Assay (II)) were used. Membranes were prepared in the following way; the cells were rinsed with PBS and incubated with Versene for approximately 5 min before harvesting. The cells were flushed with PBS and the cell-suspension was centrifuged for 5 min at 1000 rpm. Cells were homogenized (ultrathurrax) in a buffer containing 20 mM Na-HEPES and 10 mM EDTA (pH 7.4) and centrifuged at 20.000 rpm for 15 min. The resulting pellet was resuspended, homogenized and centrifuged (20.000 rpm, 15 min) in a buffer containing 20 mM Na-HEPES and 0.1 mM EDTA (pH 7.4, buffer 2). The resulting pellet was resuspended in buffer 2 and protein concentration was measured (BCA protein Assay, Pierce). The homogenate was kept cold during the whole procedure. The membranes were kept at −80° C. until use. The assay was performed in a 384 well Optiplate (PerkinElmer) in a total volume of 40 ul. Membranes were mixed with SPA beads. Final concentration of membranes 35 ng/μL final and SPA beads was 0.05 mg/well. Test-compounds were dissolved in DMSO and further diluted in assay buffer (50 mM Hepes, pH 7.4, 1 mM CaCl2, 5 mM MgCl₂, 0.1% OA and 0.02% Tween20). […] The final mixture was incubated with shaking at 400 rpm for 120 min at 25° C. prior to centrifugation (1500 rpm, 10 min). Samples were analyzed on TopCounter™ (Packard). The IC₅₀ was calculated using (one site binding competition analysis) GraphPad Prism5 as a measure of receptor affinity.

[2] = molecular target: T2, human calcitonin receptor; assay: ratio IC50 hCTR / IC50 hAmylin-R of the two SPA competition assays; reference: human amylin receptor
How it was run: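 IC₅₀ values were derived by one-site competition analysis of SPA counts. Cell membranes (35 ng/μL) with SPA beads were incubated with test compounds for 120 min at 25° C in Hepes buffer, pH 7.4, containing CaCl2, MgCl₂, OA and Tween20.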

[3] = molecular target: T2, human calcitonin receptor; assay: SPA radioligand competition (125I-calcitonin), membranes of BHK cells with human calcitonin receptor
How it was run: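 BHK hCTR membranes 35 ng/μL + SPA beads 0.05 mg/well; buffer 50 mM Hepes pH 7.4, 1 mM CaCl2, 5 mM MgCl₂, 0.1% OA, 0.02% Tween20. 120 min, 25° C., shaking. Scintillation count; IC50 by one-site binding competition.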

Binder	IC50 [1] [nM]	Ratio hCT/hAmylin binding [2]	IC50 [3] [nM]
B1	0.597	26	15.5
B2	1.14	64.4	73.4
B3	0.411	47.5	19.5
